Measurements reported in the supplement of paper PMC10724198.
± gives the standard deviation of the averaged measurements.

Experiments:
Saccharomyces cerevisiae [1] = experiment: protein stability index of tFT-peptide fusion (C-terminal peptide) (PSI (0-1 scale)); higher = more stable (slower turnover); details: genetic background: wild type; temperature: 30 C
Saccharomyces cerevisiae [2] = experiment: as above
Experimental: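 MPS profiling in S. cerevisiae of the tFT-X12 degron library: putative degron peptides plus stable controls, 12 aa, fused to the C-terminus of a sfGFP-mCherry timer. Cells are FACS-sorted into 8 mCherry/sfGFP bins and deep-sequenced. PSI runs from 0 (unstable) to 1 (stable). Backgrounds are wild type, das1Δ and doa10Δ at 30 °C, and wild type, das1Δ, cdc34-1 and cdc53-1 at 37 °C; 2-3 technical replicates each.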

[3] = genetic background: cdc34-1, temperature: 37 C
[4] = genetic background: cdc53-1, temperature: 37 C
[5] = genetic background: das1 deletion, temperature: 30 C
[6] = genetic background: das1 deletion, temperature: 37 C
[7] = genetic background: doa10 deletion, temperature: 30 C
[8] = genetic background: wild type, temperature: 30 C
[9] = genetic background: wild type, temperature: 37 C
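Note: PSI is a weighted mean of sequencing reads over stability bins, variants kept only with over 10 reads, mCherry proximal and sfGFP distal, peptide attached via GGGS linker.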

Sequence	protein stability index (Saccharomyces cerevisiae [1])	protein stability index (Saccharomyces cerevisiae [2]; [3])	protein stability index (Saccharomyces cerevisiae [2]; [4])	protein stability index (Saccharomyces cerevisiae [2]; [5])	protein stability index (Saccharomyces cerevisiae [2]; [6])	protein stability index (Saccharomyces cerevisiae [2]; [7])	protein stability index (Saccharomyces cerevisiae [2]; [8])	protein stability index (Saccharomyces cerevisiae [2]; [9])
GIPVRRLLFLVA	0.292 ± 0.051	0.419 ± 0.0098	0.478 ± 0.013	0.335 ± 0.033	0.5019 ± 0.0023	0.145 ± 0.0062	0.17 ± 0.024	0.311 ± 0.021
FGRAVWSRFCIV	0.172 ± 0.064	0.604 ± 0.044	0.735 ± 0.029	0.601 ± 0.0099	0.736 ± 0.0076	0.13 ± 0.015	0.128 ± 0.03	0.177 ± 0.032
FSLLLSLSLFHC	0.31 ± 0.015	0.547 ± 0.053	0.555 ± 0.018	0.534 ± 0.0069	0.549 ± 0.006	0.183 ± 0.0059	0.2 ± 0.025	0.356 ± 0.0068
KLRIVYAKVVCS	0.348 ± 0.055	0.547 ± 0.044	0.592 ± 0.025	0.511 ± 0.029	0.613 ± 0.0069	0.247 ± 0.019	0.274 ± 0.015	0.407 ± 0.067
GSLPERPLRYVC	0.162 ± 0.01	0.516 ± 0.035	0.6878 ± 0.004	0.651 ± 0.017	0.7239 ± 0.0021	0.1 ± 0.028	0.0973 ± 0.013	0.148 ± 0.016
LLILSLLVLSSR	0.326 ± 0.0076	0.244 ± 0.022	0.348 ± 0.024	0.241 ± 0.021	0.42 ± 0.0046	0.2034 ± 0.00063	0.229 ± 0.036	0.37 ± 0.011
SYGNGIPIRMLH	0.329 ± 0.014	0.656 ± 0.035	0.707 ± 0.026	0.641 ± 0.013	0.728 ± 0.013	0.204 ± 0.013	0.217 ± 0.013	0.422 ± 0.05
GVRAGVRRAGVG	0.402 ± 0.011	0.308 ± 0.019	0.418 ± 0.0075	0.399 ± 0.0055	0.414 ± 0.014	0.3927 ± 0.0033	0.382 ± 0.0068	0.402 ± 0.0045
SRDSLLTLIPSC	0.692 ± 0.037	0.646 ± 0.058	0.733 ± 0.0095	0.6189 ± 0.002	0.7393 ± 0.0043	0.622 ± 0.017	0.636 ± 0.013	0.697 ± 0.0081
SWWGDVVWFVVC	0.282 ± 0.03	0.555 ± 0.059	0.649 ± 0.015	0.501 ± 0.015	0.7029 ± 0.0032	0.176 ± 0.018	0.199 ± 0.03	0.381 ± 0.0062
